13 sequences from the DeepSol protein solubility set can be followed below.

The nature of the data set: soluble on expression in E. coli; label from the status in PepcDB or PDB records.
For “MGSDKIHHHHHHVVNQAQKMNFLTHLHLADISKTHLAANVAGNYIQAPIAQAPVEFRQALWLNQEINTLCASHELTIELMEAFPAPLRSIAAELMAVSFDYYLAYYWEEYHHQPLNEFSHKAYDALENFAAQGIDQYHPEALIKLLPTIRSQDWLGSYATENGLQQALAQVAKPHPQAALFKDAHKVVNKMQIEIETTFRTFYPQLMAYSRIWSRKTPAEYLP”, the “soluble on expression in E. coli” value is “not soluble”. The value for “MGSDKIHHHHHHMTNANGNLKKCPITISSYTLGTEVSFPKRVKVAAENGFDGIGLRAENYVDALAAGLTDEDMLRILDEHNMKVTEVEYITQWGTAEDRTAEQQKKEQTTFHMARLFGVKHINCGLLEKIPEEQIIVALGELCDRAEELIIGLEFMPYSGVADLQAAWRVAEACGRDNAQLICDTWHWARANQTAESIKNVPADRIVSIQLCDVHETPYKELREESLHDRLAPGEGYGDTVGFAKILKEHGVNPRVMGVEVISDSMVATGLEYAALKVYNATKKVLDEAWPEISPR” was “soluble”; that for “MGSDKIHHHHHHACDDYLDDVPKGQKIPKTWEDYNAFIRNNFSYHFLDPDQLAVLAGDIFKLPSAVTSPSLTRANYYADESVNRIDLMTGNDKNPYFNAYEGLFAWNLIVEDVPDATECTEVQRRQLIAQGRVLRAMHYFYLANFYADQYDEATKDKLSVPLITSASVEAPSPQVTLQTIYEFMLDDLNKAVEDLPVHSESILHPNRALGYGMLARVYLSVGDYDNALKNASLALEQNDQLFNWIDLYEADKERYDDPKNYTSGVAGNPETDNVENYIYCYGSSTSGWTGLNNTSYAISPERAARFEKGDTRLLTHWKSRVSSSGIPYYAGIYALEMNKGGMRSPEMYYIKAECLARKGGEANIREAMELVNKVRKTRILLEFYQDWTAATTKEAVEKIIRDKESEYIQTQVIYCDYRRLNKDPEYARTFPRTIEGKEYILKSDSHLWIMPFPREAVSNPGNGTITQNVEK” was “not soluble”; that for “MRRIITMTVNNRPGVLNRITGLFTKRHYNIESITVGHTEIEGISRMTFVVNVDDERTAEQIIKQLNKQIDVLKVNDITDQAIVARELALIKVAAPPAVRQEIYTLIEPFRASIVDVSKDSLVIQVTGEPEKVEALIELLRPYGIKEVARTGTTAFTRGAQKATTNQKTAFII” was “not soluble”. The result for “MSREDELLEKLDECENATAFLQVSNKIINLKLKALLPSVFVQDDLVKEYAVDPLLREDGPLVTTDVVSKLMFAMGKISLQTYADIGLYDQVLEYVVTQPEKIAFTDDVIYDFIKNQAVLSSQQDCFYLESINQLKFSSFESFSQMRYESLIKTVLKLSCEMLIERIEE” reads “not soluble”. The value for “KCGFSYGVGFNVFNYKAVVTKYNNPEGIIYNNHTGLAANKGYYEGMDIGEIWGYRADDLFLSNREIDDYLRNVNLTAFKSNDLWRRGDLKYIDSNGDGRVDGGKGTLADHGDLQIIGNTTPKYSFGINLNLGYKGFEVSTLLQGVAKRDFPISGSNYMFGGNNYNFKEHLDYFSTENPNGYLPRLTGWKDDKDFLVNTGYNTTRYLLNAAYMRMKNLTVAYTFNKKQLKHIGISNLKVYVTCDNLFTVTKLPKQFDPETLNQVNMSAGGDAQNTAPGLTSPMKQNGNGMVYPMNRNFVFGLDFTF” was “not soluble”; that for “MAHHHHHHMYLCWNDTFLTSFALDTLLSKLVAEVCEKRPVSSRQVLELMREALETQKMQQWYYSETVRSFNDAVNSLSRRGFPLQMACPLYFRIPQEDGGVHELFRYGSEIAVTPNNYDHFEHMLKRYQAVVNGELSQEGYYDAVRHLLPISAHCNLLNSSYTPIINFLQECLLNPRSQWAIQSSSVWDQLGVTYAVPFAGRLFAVDPTKPVTALVSFEDANRYVEMASERCRTLSSLLTTGASLNVVRRAAAAAASPPSASSGRAAVKLAPSTIPVASSAATSEEARKWEAFEAIGLRPEVFSDMSPAEIEFWKYILRLRESPSQIHDISFHLEFGPHHMDLKENGRFIPVTRLNLNQFIEAVVAKQDEVHRYINEVALVTPTHSNASRDAGGGGEGSAGPPPPPVAASNTAAAQAMPAPQQDIKIPAQPPPRTIGSEATSPVGHAQSEAHRDNEAHLTLRDVDSTVVRSIMELRSQYQLGRLTKTELNARQLRFCLPCRDGVYNLIPNGRHIQVATGNIGIFLQYVEEEKKRVEALSGGKSEDSAARACSHAPEATTGGTGSLNVIQRDRERVYGAVEAADADAGYWTDKNVLDIWTYECTTACLLKSSMSPEEIVRQTQLQWDTNFLSRKDCPYANASEDGCVILPKDVKTYLRLLRRRLQSIRLAILDAGKCPQEPSEWDVGEWDVVNPSTPPLEFEVPASVHAIPSAPENLTMFSPTHNTGGLLAPSQSLYL” was “not soluble”; that for “MGYFSNAQRHAYESLLPRYGIPLTEEPVDLDSIFGRTAPGILEIGSGMGETTAEIARQHPEKDFIAIEVHAPGIGSLLGQIEKHRLTNLRIIPHDAKLVLQQMFTSESLDGIHIFFPDPWPKARHHKRRLIQPDFVSLLCDRLKPGGYLHIATDWEDYATHILHVLRSEERFVNTAVDYAARPAYRPLTKFEQRGMKLGHTIRDIIFTRTALEHHHHHH” was “soluble”.

As for “MTREIIPILPEAPVETARSGNALPLLREIAEHLHHLLETGEASTIDLSALPLTPGDLEWLRAELGGGEVSVTLHADGASTLDETAFPGVWWIIHRNAQGAVTTQFIEVAFVPELVKSPRADVAAARAALVLRMADL”, the “soluble on expression in E. coli” value is given as “soluble”.

With “MKTYHLNNDIIVTQEQLDHWNEQLIKLETPQEIIAWSIVTFPHLFQTTAFGLTGLVTIDMLSKLSEKYYMPELLFIDTLHHFPQTLTLKNEIEKKYYQPKNQTIHVYKPDGCESEADFASKYGDFLWEKDDDKYDYLAKVEPAHRAYKELHISAVFTGRRKSQGSARSQLSIIEIDELNGILKINPLINWTFEQVKQYIDANNVPYNELLDLGYRSIGDYHSTQPVKEGEDERAGRWKGKAKTECGIHEASRFAQFLKQDA”, the “soluble on expression in E. coli” value is reported as “soluble”. Regarding “MDVIPLSLGLETMGGLVEKVIPRNTTIPVARAQDFTTFKDGQTAMSIHVMQGERELVQDCRSLARFALRGIPALPAGGAHIRVTFQVDADGLLSVTAMEKSTGVEASIQVKPSYGLTDSEIASMIKDSMSYAEQDVKARMLAEQKVEAARVLESLHGALAADAALLSAAERQVIDDAAAHLSEVAQGDDVDAIEQAIKNVDKQTQDFAARRMDQSVRRALKGHSVDE”, the “soluble on expression in E. coli” value was “soluble”. The value for “MSLKEFLIKKIEFTLFEVCIPDIGADPSGFGVWYEPGPGTPQKRFAVRIFTDEGPVGVYVPPRSRATVIMPAAIALAHFLIRKPALERERHYQTMRRITKHVGEAGIGALDIALWDLGGKISGQPISQMLGGHRRKLPSYASTIPGDEHPKGLSSSEAYADFAQQCLEIGYKGYKMHGWKEGNPQRESEMIRAVARQVGGSMDIMYDAACHLKTLTDAIRVGRVCDEHELLWYEDPYADGGLTIRGHRALKEKVRTPVMIGEHVRNPEIHTELLVSGATDFGRVDPDYDGGITGSYKAAMAAESLGYDVEVHSCGPAMRQLMAALSISNYYEINLVHPIGPNPWQLPVYLNGYSDELDCIDREGMVDVSQSPGLGVDYDWEWIEKNSLERIIVDKAKEGHHHHHH” was “soluble”. With “SEKELRSTILFNAYKKEVFTTNTGYKSLQKRLRSNWKIQSLKDEITSEKLIGVKLWITAGPREKFTAAEFEVLKKYLDSGGDILVMLGEGGESRFDTNINFLLEEYGIMVNNDAVVRNVYYKYFHPKEALGSDGVLNREISRAAGKAVPGVIDEENSGNNAQALTFVYPFGATLSVMKPAVAVLSTGSVCFPLNRPILAFYHSKNQGFGKLAVLGSCHMFSDQYLDKEENSKIMDVVFQWLTTGDIHLNQIDAEDPEISDYTMVPDTATLSEQLRVCLQEGDENPRDFTTLFDLSIYQLDTTCLPKVIKAHEELNVKHEPLQLVQPQFEMPLPALQPAVFPPSFRELPPPPLELFDLDETFSSEKARLAQITNKCTDEDLEFYVMKCGDILGVTSKLPKDQQDAKHILEHIFFQVVEFKKLNQEAH”, the “soluble on expression in E. coli” value is reported as “soluble”.
